Measurements: paper PMC9938351, “Structural insights into ribonucleoprotein dissociation by nucleocapsid protein interacting with non-structural protein 3 in SARS-CoV-2” (Communications Biology, 2020)

Legend:
SARS-CoV N protein = SARS-CoV N protein (SARS-CoV, UniProt P59595 1-422); assay: ITC; settings: both partners purified
MERS-CoV N protein = MERS-CoV N protein (MERS-CoV, UniProt K9N4V7 1-411); assay: ITC; settings: both partners purified

Chain of SARS-CoV N protein (P59595 whole entry): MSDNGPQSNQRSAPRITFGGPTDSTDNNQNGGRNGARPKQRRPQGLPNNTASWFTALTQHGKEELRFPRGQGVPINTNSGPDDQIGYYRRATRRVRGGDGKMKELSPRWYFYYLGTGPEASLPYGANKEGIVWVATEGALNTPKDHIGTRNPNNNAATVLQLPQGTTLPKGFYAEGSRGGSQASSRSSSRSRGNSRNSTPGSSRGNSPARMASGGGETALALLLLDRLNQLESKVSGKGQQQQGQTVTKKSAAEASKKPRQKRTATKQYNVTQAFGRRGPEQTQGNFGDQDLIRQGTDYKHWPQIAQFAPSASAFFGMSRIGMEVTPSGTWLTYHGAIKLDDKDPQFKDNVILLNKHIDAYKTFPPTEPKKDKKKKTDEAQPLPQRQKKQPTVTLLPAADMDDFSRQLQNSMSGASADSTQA

Binder	Kd (SARS-CoV N protein) [nM]	dH (SARS-CoV N protein) [kcal/mol]	stoichiometry N (SARS-CoV N protein)	Kd (MERS-CoV N protein) [nM]	dH (MERS-CoV N protein) [kcal/mol]	stoichiometry N (MERS-CoV N protein)
SARS-CoV Ubl1 of Nsp3 (domain or fragment) APIKGVTFGEDTVWEVQGYKNVRITFELDERVDKVLNEKCSVYTVESGTEVTEFACVVAEAVVKTLQPVSDLLTNMGIDLDEWSVATFYLFDDAGEENFSSRMYCSFYPPD	800 ± 200	-13.4 ± 0.382	1 ± 0.02	–	–	–
MERS-CoV Ubl1 of Nsp3 (domain or fragment) APVKKVAFGGDQVHEVAAVRSVTVEYNIHAVLDTLLASSSLRTFVVDKSLSIEEFADVVKEQVSDLLVKLLRGMPIPDFDLDDFIDAPCYCFNAEGDASWSSTMIFSLHPVEC	–	–	–	2300 ± 600	6.09 ± 0.311	0.82 ± 0.02
